The results in this text go back to patent US10100120B2, “Antibody which specifically binds to human CRTH2” (KYOWA HAKKO KIRIN CO., LTD, priority 2015, dated 2018).

The test system of the series is human basophils. The series is described as follows: Basophil depletion (cytotoxic) activity in human peripheral blood cells, flow cytometry. The format is cell-based. The following applies: 37° C., 20 hours. On the procedure: Human peripheral blood collected by adding a heparin sodium injection liquid was centrifuged at 4° C. and 1500 rpm for 30 minutes, and the plasma was recovered.
After the plasma was recovered, PBS (NACALAI TESQUE, Inc.) was added to the pellet containing the red blood up to the original volume of blood and the pellet was suspended. Next, to 1 mL of the suspension, 10 mL of hemolyzing solution [solution obtained by diluting 10×RBC Lysis buffer (eBioscience) 10 times with sterile water] was added to be mixed by inversion. The resultant was allowed to stand at room temperature for 10 minutes and centrifuged at room temperature and 1500 rpm for 5 minutes and washed twice with PBS after the supernatant was removed therefrom.
Thereafter, the cell pellet was suspended with the recovered plasma and the cells were seeded in a 48-well plate at 300 μL/well, each of chLym2, humanized Lym2 antibodies LV0HV0, LV0HV1, and LV0HV2a, or an isotype control antibody [IgG1 antibody prepared according to the method described in Example 5 using a vector encoding an anti-2,4-dinitrophenol (DNP) IgG1 antibody described in Clin Cancer Res 2005, 11(8), 3126 to 3135 (hereinafter, referred to as anti-DNP IgG1 antibody)] were added at each final concentrations of 1000, 100, 33, 11, 3.7, 1.2, 0.4, and 0.01 ng/mL to cause a reaction in a 5% CO2 incubator at 37° C. for 20 hours.
After the reaction, the cell fluid in each well was recovered, 10 mL of SM was added thereto, 200 μL per sample of CountBright Absolute Counting Beads, for flow cytometry (Molecular Probes) was added as control beads, and the fluid was centrifuged at 4° C. and 2000 rpm for 10 minutes, and then the supernatant was removed. The resultant was washed twice with SM, 10000 μg/mL of IgG from human serum (Sigma-Aldrich Co. LLC) diluted with SM was added at 300 μL/sample and suspended to cause a reaction at 4° C. for 30 minutes. […]
The cells were washed twice with SM, suspended by SM containing 1% of 7-AAD Staining Solution (BD Biosciences), allowed to stand at 4° C. for 10 minutes, and the fluorescent intensity was analyzed by flow cytometry (BD Biosciences, FACS CantoII).
Human eosinophils were detected as 7-AAD negative siglec8-PE positive fractions in granulocyte fractions of FSC-SSC deployment. Human basophils were detected as 7-AAD negative fractions, CD123-PC-Cy7 positive fractions, FcεRI-APC positive fractions in lymphocyte fractions of FSC-SSC deployment. The cell depletion activity was evaluated by analyzing the count number of each cell per a certain number of CountBright. […]

B1: LV0HV1: humanized Lym2 antibody, VL LV0 (SEQ ID NO: 33), VH HV1 (SEQ ID NO: 51) (antibody, V domains shown)
VH: EVQLVESGGGVVQPGRSLRLSCAASGFTFSNYYMAWVRQAPGKGLEWVATISYDGSSTYYRDSVKGRFTISRDNAKNSLYLQMNSLRAEDTATYYCARHRGYYYSGAGYFDYWGQGTMVTVSS
VL: DIVMTQTPLSLPVTPGESASISCRSSQSLEYSDGYTYLEWYLQKPGQSPQVLIYGVSNRFSGVPDRFSGSGSGTDFTLKISRVEAEDVGVYYCFQATHDPLTFGQGTKLEIK
Regarding B1, for the setting “Example 8, 0.01-1000 ng/mL, FIG. 3”, the “cytotoxic activity against basophils” value is “comparable to the chimeric Lym2 antibody chLym2”. For the same molecule, for the setting “Example 14, 0.1-1000 ng/mL, FIG. 11”, the removal of basophils entry is listed as “removed”.
